Measurements from the supplement of paper PMC10567573.

B1: MFF (parent)
chain: MAEISRIQYEMEYTEGISQRMRVP
B2: RIPK4 (parent)
chain: VIDLFDEQGLSALHLAAQGRHAQT

Variants of: B1
Experiment: protein stability index of a GFP-peptide fusion (GPS, HEK-293T) (PSI 1-6); higher = more stable
Settings: c terminus: a fixed tail appended
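Also: lentivirally expressed fusions sorted by FACS into six bins by GFP to DsRed ratio, PSI derived from sequencing read proportions per bin multiplied by bin number.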

Protein stability index, by site and new letter:
P24: Y 1.85; K 2.98; R 2.87; V 1.84; Q 2.75; N 2.56; F 1.54; G 2.44; H 2.02; W 1.32; S 2.33; C 1.93; D 2.7; E 2.74; M 2.21; L 2.16; I 1.91; T 3.42

Variants of: B2
Experiment: as above
Settings: c terminus: a fixed tail appended

Protein stability index of substitutions, site by site:
Q8: S 2.65; I 1.46; R 2.82; H 2.61; K 2.58; E 2.98; L 1.66; C 1.76; V 2.53; P 3.22; D 3.07; G 3.12; M 2.08; N 2.86; A 2.73; F 2.05; T 2.65
F5: T 3.94; E 4.6; K 4.16; M 2.78; Q 3.91; P 4.81; L 2.95; I 2.89; R 3.64; S 3.67; H 3.9; N 2.98; G 3.86; Y 3.22; A 4.21; D 4.18; W 2.44; C 3.08; V 3.39
L4: C 2.76; N 3.12; Q 3.98; W 2.85; T 3.79; Y 3.52; E 4.29; I 2.86; D 4.18; A 3.72; K 3.92; P 3.73; R 3.34; F 2.66; M 3.11; S 3.94; H 3.81; G 3.89; V 3.26
D6: K 1.81; G 1.77; Q 2.13; R 2.04; N 1.96; V 3.75; H 2.06; F 2.33; S 2.57; E 2.71; I 4.12; M 1.97; P 3.13; W 2.55; Y 1.63; T 2.15; C 2.39; A 1.91
D3: Y 1.1; L 1.89; S 2.69; A 1.79; F 3.19; P 2.81; H 1.68; N 2.7; C 2.25; V 1.58; R 2.34; I 2.71; W 2.95; E 2.66; G 2.58; K 2.31; M 1.36; T 2.17; Q 2.46
E7: S 2.73; M 1.1; I 2.2; V 2.32; F 1.68; H 2.17; R 1.98; N 2.36; Y 1.48; P 2; A 2.23; D 2.73; K 1.86; G 2.01; W 1.98; C 1.73; Q 2.35; T 2.45; L 1.92
I2: S 3.88; V 3.67; H 4.22; W 2.36; L 2.25; F 2.42; M 3.26; K 3.89; Y 2.97; E 4.42; R 3.24; P 3.66; D 4.21; Q 3.76; G 3.41; A 3.92; C 3.4; N 3.79; T 3.64
V1: G 3.61; E 4.09; M 3.37; D 4.32; Q 4.09; P 3.72; F 1.88; I 2.43; T 3.82; K 3.92; W 2.76; H 3.45; R 3.41; L 2.7; C 2.88; S 3.62; Y 2.16; A 3.82; N 3.7
